Positions count from the first letter of the chain named. Names may count otherwise.

Here are results for five molecules from patent US20110318339A1 (FABRUS, published 2011).

Test [1] concerns the target full-length human DLL4 expressed on the surface of CHO cells (human, UniProt Q9NR61 27-685). The test is described as follows: cell-based or functional assay.
Test [2] addresses T1, Recombinant Human DLL4 (Cat# 1506-D4/CF, R&D Systems) (human, UniProt Q9NR61 27-529).
T1 construct: Bought protein; also called rHuman DLL4; hDLL4
Briefly: SPR, DLL4 immobilised. The method, then: In this example, the binding affinities of selected anti-DLL4 Fabs to recombinant human DLL4 (hDLL4, Cat# 1506-D4/CF, R&D Systems) were analyzed using Surface Plasmon Resonance (SPR) (Biosensor Tools, Salt Lake City, Utah). The Fabs analyzed include germline-derived antibodies and germline-modified DLL4 antibodies. Recombinant hDLL4 was immobilized on a SPR chip using amine coupling at three different surface densities. The Fabs were serially diluted 3-fold, with an initial concentration of 1 μM. Binding studies were run on a ProteOn system using a GLM sensor chip in 10 mM HEPES, pH 7.4, 150 mM NaCl, 0.01% Tween-20, and 0.1 mg/ml BSA at 25° C. The response data from each surface was globally fit to determine the binding constants.
(Surface plasmon resonance follows binding to a sensor surface in real time, without labels.)

Test [3] addresses T2, DLL4 DSL (amino acid: 1-217) construct (human, UniProt Q9NR61 26-217).
T2 construct: also called DSL construct; not shown: myc tag (and his tag) added by the PCR primers
Briefly: Western blot, non-reducing. On the procedure:
(§1) Media from transfected CHO cells was collected after 7 days. To enrich for the DLL4 protein, 1 ml aliquots of each sample were batch bound with 50 μl of Talon Resin for 30 minutes. To confirm protein production media samples were tested with mouse anti-c-myc mAb (Genescript; Catalog # A00704). Samples were washed and then boiled with loading dye in the presence or absence of DTT. A gel was run on each of the 2 samples for each condition: with DTT and without DTT. […] For detection goat anti-mouse HRP, goat anti-kappa HRP, and goat anti-lambda HRP were used, respectively.

Test [4] addresses T3, DLL4 Egf1 (amino acid: 1-251) construct (human, UniProt Q9NR61 26-251).
T3 construct: also called EGF1 construct; not shown: myc tag (and his tag) added by the PCR primers
The test is described as follows: Western blot, non-reducing. On the procedure:
as §1
In general terms: In western blotting, separated proteins are transferred to a membrane and probed.

Test [5] deals with T4, recombinant mouse DLL4 (Cat# 1389-D4-050/CF, R&D Systems) (mouse, UniProt Q9JI71 28-525).
T4 construct: also called mDLL4
Briefly: ELISA, mDLL4 or hDLL4 coated.

Test [6] concerns the target T1, Recombinant Human DLL4 (Cat# …). Briefly: ELISA, hDLL4 coated, estimated from dose-dependent binding.
Test [7] has the same target. The test is described as follows: ELISA, DLL4 coated. On the technique in general: ELISA stands for enzyme-linked immunosorbent assay.
Test [8] has as its target T5, recombinant mouse DLL4 (Cat# 1389-D4-050/CF, R&D Systems) (mouse, UniProt Q9JI71 28-525).
T5 construct: Bought protein; also called mDLL4
The test is described as follows: SPR, mDLL4 on chip, row 'Surface 1' (second).

Test [9] deals with T6, recombinant human DLL4 (Cat# 1506-D4/CF, R&D Systems) (human, UniProt Q9NR61 27-529).
T6 construct: Bought protein; also called hDLL4; rHuman DLL4
Briefly: ELISA, DLL4 coated, Fab 0.74 nM. In short, it runs like this: (§2)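 Binding of Fab to the coated plate is measured by absorbance at 450 nm. Triplicate serial dilutions incubate 1 h at room temperature after 1% BSA/TBST blocking, and HRP-labelled anti-human kappa or lambda antibody (1:1000, 30 min) with 2-min TMB development reports bound Fab.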

In test [10] the target is T5, recombinant mouse DLL4 (Cat# …). Briefly: SPR, mDLL4 on chip, row 'Surface 1' (third).
The target of test [11] is T6, recombinant human DLL4 (Cat# …). Briefly: ELISA, DLL4 coated, Fab 6.67 nM. A digest of the protocol:
as §2

Test [12] has as its target T5, recombinant mouse DLL4 (Cat# …). Briefly: SPR, mDLL4 on chip, average of three surfaces.
The target in test [13] is T6, recombinant human DLL4 (Cat# …). The test is described as follows: SPR (ProteOn), hDLL4 amine-coupled on chip. A digest of the protocol:
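SPR on a ProteOn GLM chip, with DLL4 amine-coupled at three surface densities. Fab analytes were run as 3-fold serial dilutions from 1 μM in 10 mM HEPES pH 7.4, 150 mM NaCl, 0.01% Tween-20, 0.1 mg/ml BSA at 25° C. Responses from each surface were globally fit for binding constants.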

For test [14], the target named is T5, recombinant mouse DLL4 (Cat# …). The test is described as follows: SPR, mDLL4 on chip, row 'Surface 1' (first).
Test [15] concerns the target T6, recombinant human DLL4 (Cat# …). Briefly: ELISA, DLL4 coated, Fab 20 nM. A digest of the protocol: as §2
The target is the same in test [16]. Briefly: ELISA, DLL4 coated, Fab 2.22 nM. In short, it runs like this:
as §2

Test [17] concerns the target T1, Recombinant Human DLL4 (Cat# …). The test is described as follows: ECL competition, DLL4 coated; competitor 100 nM Ru-labeled Fab H:APF & L:wt. The method, then: Briefly, single spot 96-well standard plates (MSD) were coated overnight with 5 μl per well of 10 μg/ml DLL4 (R&D systems) in PBS with 0.03% Triton X-100. Some wells were left uncoated as blank. The next day, an 150 μl aliquot of 3% BSA in TBST was added to each well and allowed to incubate for 60 min at 20° C. to block the plate. […] After incubating the plate at 20° C. with shaking for 1 hour, the ECL signal was measured using a Sector Imager 2400.

For test [18], the target named is T7, full-length human DLL4 expressed on the surface of CHO cells (human, UniProt Q9NR61 26-685).
T7 construct: also called CHO-DLL4; DLL4-expressing CHO cells
Briefly: flow cytometry, 250 nM biotinylated Notch-Fc on CHO-DLL4 cells, no Fab (0 nM control). On the procedure: Streptavidin-PE was used as a detection molecule.
Fab was 5-fold serially diluted in 2% BSA/PBS from a starting concentration of 50 nM. […] PE-labeled streptavidin (Cat# 21627, Pierce-Thermo Scientific) was then added to a final dilution of 1:5 followed by incubation for 10 minutes at room temperature. The cells were then washed twice in 2% BSA/PBS and analyzed by flow cytometry on a BD FACSAria.

B1: IgG H:APFF VLTH & L:NDH LS (antibody, V domains shown)
VH: QVQLVQSGAEVKKPGASVKVSCKASGYTFTSYYMHWVRQAPGQGLEWMGIGLPTGHSTSYAQKFQGRVTMTRDTSTSTVYMELSSLRSEDTAVYYCAREEYAPFSAEYFQFWGQGTLVTVSS
VL: EIVLTQSPATLSLSPGERATLSCRASQNVDHYLAWYQQKPGQAPRLLIYDALNRSTGIPARFSGSGSGTDFTLTISSLEPEDFAVYYCQQRSNWPPWTFGQGTKVEIKR
In the case of B1, in [1], the “IC50, Notch-activation (luciferase reporter), T98G cells with CHO-DLL4” value is about 6 nM and the “fold efficiency against Fab H:APFF VLTH & L:NDH LS, Notch-activation (luciferase reporter)” value came to 30 fold.

B2: Fab VH1-46_IGHD6-6*01_IGHJ1*01 H:APFF VLTH & L6_IGKJ1*01 L:NDH LS (Fab, V domains shown)
VH: B1 VH with G51V
VL: B1 VL
notes: all other places give 370; also called Fab H:APFF VLTH & L:NDH LS; anti-DLL4 Fab H:APFF VLTH & L:NDH LS
Take B2: the “fold greater affinity for hDLL4 than for mouse DLL4” value in [2] worked out at 5 fold. The binding result in test [3] and in [4] was “no binding (tested: 20 nM Fab)” each time. For the same molecule, in test [5], the “fold decrease in affinity for mDLL4 against hDLL4” value is 10 fold. Besides, in test [6], the Kd is about 1 nM. Moreover, the “fold increased binding affinity against the antibody mutants with heavy chain H:APFF ALTH” value in test [7] is about 10 fold.

B3: Fab VH1-46_IGHD6-6*01_IGHJ1*01 S102A/S103P/S104F/H111F I51V/N52L/S54T/G56H & L6_IGKJ1*01 S28N/S30D/S31H S52L/A55S (Fab, V domains shown)
VH: B1 VH with G51V
VL: B1 VL
notes: Fab made in E. coli: VH on CH1 with His6 and Flag tags (Plasmid A), VL on kappa CL (Plasmid C); also called H: APFF VLTH & L: NDH LS
As to B3, the Kd came to 10.8 nM in test [8]; 10.9 nM in test [10]; 9.7 nM in [12]; 1.7 nM in test [13]; 7.3 nM in test [14]. For the same molecule, the koff in test [8] is 0.00178 s⁻¹; in test [10] it was 0.00188 s⁻¹; in [12] it was 0.00192 s⁻¹; in [13], 0.00109 s⁻¹; in test [14] it was 0.0021 s⁻¹. Also, the kon turned out to be 165000 M⁻¹ s⁻¹ in test [8]; 173000 M⁻¹ s⁻¹ in test [10]; 208000 M⁻¹ s⁻¹ in test [12]; 684000 M⁻¹ s⁻¹ in test [13]; 287000 M⁻¹ s⁻¹ in test [14]. For the same molecule, the “ELISA absorbance at 450 nm” value in test [9] is 0.263 A450; in [11] it was 0.747 A450; in test [15] it was 0.91 A450; in test [16], 0.523 A450.

B4: Fab VH1-46_IGHD6-6*01_IGHJ1*01 H:APFF G56H & L6_IGKJ1*01 (Fab, V domains shown)
VH: B1 VH with G51I, L52N, T54S
VL: not shown
notes: Fab, kappa light chain; also called H:APFF G56H & L:wt
As to B4, the Kd in test [17] is about 30 nM.

B5: biotinylated Notch-Fc (rHuman Notch-1/Fc Chimera, cat# 3647-TK-050, R&D Systems) (Fc fusion)
chain: ARGPRCSQPGETCLNGGKCEAANGTEACVCGGAFVGPRCQDPNPCLSTPCKNAGTCHVVDRRGVADYACSCALGFSGPLCLTPLDNACLTNPCRNGGTCDLLTLTEYKCRCPPGWSGKSCQQADPCASNPCANGGQCLPFEASYICHCPPSFHGPTCRQDVNECGQKPGLCRHGGTCHNEVGSYRCVCRATHTGPNCERPYVPCSPSPCQNGGTCRPTGDVTHECACLPGFTGQNCEENIDDCPGNNCKNGGACVDGVNTYNCRCPPEWTGQYCTEDVDECQLMPNACQNGGTCHNTHGGYNCVCVNGWTGEDCSENIDDCASAACFHGATCHDRVASFYCECPHGRTGLLCHLNDACISNPCNEGSNCDTNPVNGKAICTCPSGYTGPACSQDVDECSLGANPCEHAGKCINTLGSFECQCLQGYTGPRCEIDVNECVSNPCQNDATCLDQIGEFQCICMPGYEGVHCEVNTDECASSPCLHNGRCLDKINEFQCECPTGFTGHLCQ
modifications: biotinylated with EZ-Link NHS-Biotin Reagent (sites not given)
notes: Bought Notch-1/Fc chimera; Fc part of the bought chimera not given
Regarding B5, in [18], the “signal of Notch-Fc bound to CHO-DLL4 (streptavidin-PE)” value was found to be 531.

In general, Kd refers to the free concentration of one partner at which half of the binding sites on the other are occupied at equilibrium, for simple one-to-one binding. Usually koff stands for the rate constant with which the complex falls apart. What is called kon is the second-order rate constant of association.
